Results taken from the nanobody polyreactivity screen of Harvey et al. (2022).

Test: yeast display, Sf9 membrane polyspecificity reagent, FACS + sequencing; frameworks hold sequencing errors
How it was run: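 Galactose-induced (36–48 hours) yeast carrying a synthetic nanobody display library were exposed to 10% biotinylated, detergent-solubilized Sf9 membrane reagent at 4 °C for 1 hour. FACS followed streptavidin microbead enrichment, using low and high (top ~1%) gates for expression (anti-HA) and reagent binding (streptavidin). Colony PCR, MiSeq 2 × 250 sequencing and CDR-length filtering followed. Labels for polyreactivity reflect the gate of origin.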

Sequence | polyreactivity (PSR sort gate)
QVQHVESGGGLVQAGGSLRLSCAASGRIFSYYAMGWYRQAPGKERELVAVISRRGDNTYYADSVKGRFTISRDNAKKTVYLQMNSLKPEDTAVYYCAARFGYLTFYSSGYYWGQGTQVTVSS | high polyreactivity
QVQLVESGGGLVQAGGSLRLSCAASGRIIVHYAMGWYRQAPGKERELVAAISWSGGSTYYADSVKGRFTISRDIGNNTVYLQMNSLKPEDTAVYYCNALDPLYFRYDYWGQGTQVTVSS | low polyreactivity
QVQLVESGGGLVQAGGSLRLSCAASGIIFVKYVMGWYRQAPGKERELVAAISLGGGSTYYADSVKGRFTISRDNAKNTVYLQMNSLKPEDTAVYYCAAVRWTSRSRYDYWGQGTQVTVSS | high polyreactivity
QVQLVESGGGLVQAGGSLRLSCAASGSTFKSYAMGWYRPAPGKERELVAAISSSGGSTYYADSVKGRFTISRDNAKNTVYLQMNSLKPEDTAVYYCNAVWVQGGIGNYWGQGTQVTVSS | low polyreactivity
QVQLVESGGGLVQAGGSLSLSCAASGRILSLNAMGWYRQAPGKERELVAGIRKRGGSTYYADSVKGRFTISRDNAKNTVYLQMNSLKPEDTAVYYCAADGTLFSEYYWFFGYHDYWGQGTQVNVSS | high polyreactivity
QVQLVESAGGLVQAGGSLRLSCAASGRILVRNAMGWYRQAPGTERELVAAIRRGTSTNYADSVKGRFTISRDNAKNTVYLQMNSLKPEDTAVYYCAVRAASPYLDGAWRRRYDYWGQGTQVTVSS | low polyreactivity
QVQLVESGGGLVQAGGSLRLSCAASGRTFWGNAMGWYRQAPGKEREFVAGITQSDGSTYYADSVKGRFTISRDNAKNTVYLQMNSLKPEDTAVYYCAATPYSTQGLRPKFDYWGQGTQVTVSS | low polyreactivity
QVQLVESGGGLVQAGGTLRLSCSASGGTIAIYAMGWYRHARGKEREMVARISYSSGSTHYADSVKGRFTISRDNAKNTVFLQMNSLKPEDSAVYYCAATAYWFYAKDYYWGQGSQVTVSS | high polyreactivity
QVQLVESGGGLVQAGGSLRLSCAASGFIFVYNDMGWYRQAPGKERELVAAISSSGGSTYYADSVKGRFTISRDNAKNTVYLKMNSLKAEDTAVYYCAKTGWNLDYSYSTDGYDYWGQGTLVTVSS | high polyreactivity
QVQLVESGGALVQAGGSLRLRCAASGRIFRLYAMGWYRQAPGKERELVAAISSSGADTYYADSVKGRFTISSDNAKNTVDLQMNSLKPEETAVYYCAARTWHRYDYFGQGTQVTVSS | high polyreactivity
QVQLVESGGGLVQAGGSLRLSCAASGFTFWHYAMGWYRQAPGKERELVAAITWDGGSTYYADSVKGRFTISRDNAKNTFYLQMQSLKPEDNAVYYCAKLFGGTYYEYDYWGQGTQVTVSS | low polyreactivity
QVQLVESGGGLVQAGGSLRISSAASGSIFLVNALGWYRHAPGKERELVAGISDGGSTYYADSVKGRFTISRDNAKNSVYLLLICLKPEDTAVYFCAAESEQWFSYVLSYDWESDSWGQGSQVTVSS | low polyreactivity
QVQLVESGGGLVQAGGSLRLSCAASGRTFQLYAMGWYRQAPGKEMELVAAISTRGGSTYYADSVKGRFTISRDNAKNTVYLLMNSLKPEDTAVYYCAKDPSFTRGYKEGGGYDYWGQGTQVNVSS | high polyreactivity
QVQLVESAGGLVQAGGSLRLSCDASISSINAMGWYRQAPGKEREMVAAIRWSGSSTYYADSVKGRFTISRDNAKNTVYLQMNSLKPEDTAVYYCAARWYARSLTRFNYWGQGTQVTVSS | high polyreactivity
QVQLVESGGGLVQAGGSLRLSCAASGIISIFNVMGWYRQAPGKERELVASITGRGGSTFYADSVKGRFTISRDNAKNTVYLQMNRLKPEDTAVYYCATDTGYTYPVTGLYDYWGQGTQVTVSS | low polyreactivity
QVQLVESGGGLVQAGGSLSLSCAASGSTFWYYAMGLYRQAPGKERELVAAITRGGNTYYADSVKGRFTISRDNAKNTVYLQMNSLKPEDTAVYYCAAGFYLLGKYDYWGQGTQVTVSS | high polyreactivity

Sequence | polyreactivity (PSR sort gate)
QVQLVESGGGLVQAGGSLRLSCAASGSIFYGYAMGWYRQAPGKERELVAVITDGGGSTYYADSVKGRFTISRDNAMNTVYLQMNSLKPEDTAVYYCNRVFPPTDYEFDSWGQGTQLTVSS | low polyreactivity
QLQLGESAGGLVQAGGSLRLSCAASGSIFGLNAIGWYIQAPGKERELVAAISSGGSTYYADSVKGRFTISRDNAKNTVYLQMNSLKPEDTAVYYCNAYFQYYDYWGLGTQVTVSS | low polyreactivity
QVQLVESGGGLVQAGGSLRLSCAASGRTFYKNAMGWYRQEPGTERELVAAISSRGGRTTYADSVKGRFTISRDNAKNTVYLQMISLKPEDTAVYYCAADWAQVYHGTPKYYYWGQGTQVTVSS | high polyreactivity
QVQLVESGGGLVQAGGSLRLSCAASGITLRYYAMGWYRQAPGKERELVAAITYSGTNTRYADSVKGRFTISRDNAKNTVYFQMNSLKPEDTAVYYCAARNGFGSPQMGYWGQGTQVTVSS | high polyreactivity
QVQLVESGGGLFQAGGSLRVSCAASGFTFVYYAMGWYRQAPGKERELVAAITASGGSTYYADSVQGRFTISRDNAKNTVYLQMNSLKPEDSADYYCNTVRYVRHYRQSGYWGQGTQVTVSS | high polyreactivity
QVQLVESGGGLVQAGGSLRLSCAASGFIFGAYAMGWYRQAPGKESELVAAISWSGGRTYYADSLTGRFTISRDNAKNTVYLQMNSLKPEDTAVYYCAAAVYTTRYSASEYWGQGTEVTVSS | high polyreactivity
QVQLVESGGGLVQAGGSLRLSCAASGSTYEYNAMGWYRQAPGKERELVAGISSGGSTYYADSVKGRFTISRDNAKNTVYLQMNSLKPEDTAVYYCATSEASVATWDRYTELDYWGQGSQVTVSS | low polyreactivity
QVQLVESGGGLVQAGGSLRLSCAASGFIFTVNAMGWYRQAPGKERELVAAITQSCGNTSYADSVKGRFTISRDNAKNTVYLQMNSLKPEDTAVYYCNASSDTSRYGVSTYYYWGQGTQVTVSS | low polyreactivity
QVQLVESGGGLVQAGGSLRLSCAASGIIFWDNAMGWYRQAPGQDRELVASINYSGGSTYYADSVKGRFTISRDNAKNTVYLQMNSLKPEDTAVYDCAARTVTLDDWDYAYDYWGQGTQVTVSS | low polyreactivity
QVQLVESGGGLVQAGGSLRLSCAASGSTFKRYAMGWYRQAPGKERELVASISSGGSTNYADSVKGRFTISRDNAKNTVYLQMNSLKREDTAVYYCAVSYRSFRYYWERYYSWGQGTQVTLSS | high polyreactivity
QVQLVESGGGLVQAGGSLRLSCAASGTTFGPNAMGWYRQAPGTERELVAAIRWRGGSTYYADSVQGRFTIARDNAKNTVYLQMNSLKPEDTAVYYCADTRYSWHNRVSRRHRYDYWGQGTQVTVSS | high polyreactivity
QVQLVESGGGLDQAGGSLRLSCAASGRIFIDNTMAWYRQAPGKERELVAAISWSGGSTYYADSVKGRFTISRDNAKNTVYLQMNSLKPEDTAVYYCAARSLRSNGRTWAVTYDYWGQGTQVTVSS | low polyreactivity
QVQLGESVGGLVQAGGSLRLSCAASGFTSRKNAMGWYRQAPGKERELVAAITQSSGRTYYADSVKGRFTISRVNAKNTVYLQMNRLKPEDTAVYYCAARRGGEDDYWGQGTQVTVSS | low polyreactivity
QVQLVESGGGLVQAGGSLRLSSAASGFIFGGYSMGWYRQAPGKERELVAAISRSGGSTYYADSVKGRFTISRDNPKNTVYLQMNSLKPEDTAVYYCNAVPRRQGFNYWGHGTQVTVSS | high polyreactivity
QVHLVESGAGLDQAGVRLRLSCAPSGTTFDYNTMGWYRQAPGKERELVASINNSGGSTYYADSVKGRFTISRDNAKNTVYLQMISLKPVDTAVYYCAAVSYRRHFGPYNYWGQGTQVTVSS | low polyreactivity
